Test [1] has as its system P. renovo. Nature of the test: Growth of FDH-expressing P. renovo in media supplemented with formate. Type of test: cell-based, Picochlorum renovo. To be noted: for growth on sodium formate: up to 75 mM sodium formate, 2% CO2, pH=6 Bis-Tris, 5 mM NH4Cl; for growth in media supplemented with formate: 25 mM formate, 2% CO2, pH 6.0. As for the experimental part: Cultures were mixed via shaking (170 rpm) at 33° C., 2% CO2, and 125 uE cool white LED lighting.
FDH variants utilized were mutated from the Pseudomonas sp. 101 FDH, specifically NAD+ utilizing variant (A198G) and NADP+ utilizing variant (A198G/D221Q/C255A/H379K/S380V). FDH transformation vectors were prepared by Twist Bioscience, cloning a ribosomal binding site ([…]) and codon optimized FDH downstream of the ptxD selectable marker in our previously described chloroplast transformation vector. P. renovo transformation was carried out as described previously, with the exception that Critter Technology binding and precipitation buffers were used according to the manufacturers recommendations to bind DNA (plasmid prepared by Twist Bioscience) onto the gold microcarriers for biolistic transformation.

The subject of test [2] is P. renovo. The experiment in a line: Formate utilization, HPLC analysis of culture supernatant. The settings on record: for formate consumed from the culture media: 25 mM formate, 2% CO2, after 85 hours of cultivation; for formate consumption: 10 mM sodium formate, evaporative losses taken into account. Type of test: cell-based, Picochlorum renovo. The procedure:
Six μL of filtered cell-free supernatant was used for injection into the Bio-Rad HPX-87H (300×7.8 mm) ion exchange column. Elution of the organic acid was carried out with 0.01 N sulfuric acid at a flow rate of 0.6 mL per min. The column temperature was maintained at 55° C.

B1: SV26: Candida boidinii FDH (C23S), SEQ ID NO: 14 (protein, listed as Candida boidinii)
chain: MKIVLVLYDAGKHAADEEKLYGSTENKLGIANWLKDQGHELITTSDKEGETSELDKHIPDADIIITTPFHPAYITKERLDKAKNLKLVVVAGVGSDHIDLDYINQTGKKISVLEVTGSNVVSVAEHVVMTMLVLVRNFVPAHEQIINHDWEVAAIAKDAYDIEGKTIATIGAGRIGYRVLERLLPFNPKELLYYDYQALPKEAEEKVGARRVENIEELVAQADIVTVNAPLHAGTKGLINKELLSKFKKGAWLVNTARGAICVAEDVAAALESGQLRGYGGDVWFPQPAPKDHPWRDMRNKYGAGNAMTPHYSGTTLDAQTRYAEGTKNILESFFTGKFDYRPQDIILLNGEYVTKAYGKHDKK
Take B1: the “growth on sodium formate” value in the test on P. renovo [1] is listed as “able to grow”.

B2: SV27: Candida boidinii FDH (C23S/C262A), SEQ ID NO: 16 (protein, listed as Candida boidinii)
chain: MKIVLVLYDAGKHAADEEKLYGSTENKLGIANWLKDQGHELITTSDKEGETSELDKHIPDADIIITTPFHPAYITKERLDKAKNLKLVVVAGVGSDHIDLDYINQTGKKISVLEVTGSNVVSVAEHVVMTMLVLVRNFVPAHEQIINHDWEVAAIAKDAYDIEGKTIATIGAGRIGYRVLERLLPFNPKELLYYDYQALPKEAEEKVGARRVENIEELVAQADIVTVNAPLHAGTKGLINKELLSKFKKGAWLVNTARGAIAVAEDVAAALESGQLRGYGGDVWFPQPAPKDHPWRDMRNKYGAGNAMTPHYSGTTLDAQTRYAEGTKNILESFFTGKFDYRPQDIILLNGEYVTKAYGKHDKK
Regarding B2, the “growth on sodium formate” value in the test on P. renovo [1] is “able to grow”.

B3: NADP+-utilizing FDH variant: Pseudomonas sp. 101 formate dehydrogenase mutant A198G/D221Q/C255A/H379K/S380V, SEQ ID NO: 32, expressed in P. renovo chloroplast (protein)
chain: MSDPTLAQPHLVEVHTTLETVVTTHNHNHRPSINASGEKKKIVGVFYKGNEYAKLNPNFVGCVEGALGIREWLESQGHQYIVTDDKEGPDSELEKHIPDAHVIISTPFHPAYVTAERIKKAQKLELLLTAGIGSDHVDLKAAAAAGLTVAEVTGSNVVSVAEDELMRILILMRNFLPGYHQAVKGEWNVAGIAHRAYDLEGKTVGTVGAGRIGKLLLQRLKPFNCNLLYFDRLRIDPELEKEIGAKFEEDLDAMLPKCDVIVINTPLTEQTRGLFDKNRIAKCKKGVLIVNNARGAIADTQAIADACSSGHVAGYSGDVWDPQPAPKDHPWRYMPNHAMTPHISGTTIDAQLRYAAGVKDMLDRHFKGEDFPEQNYIVKEGQLASQYR
modifications: Pseudomonas sp. 101
As for B3, the “growth in media supplemented with formate” value is on record as “no growth” in the test with P. renovo [1] and “did not grow” with P. renovo [1] (listed as NADP+ utilizing FDH variant). Besides, the “formate consumed from the culture media” value in the test on P. renovo [2] is reported as “no formate utilization”.

B4: NAD+-utilizing FDH variant: Pseudomonas sp. 101 formate dehydrogenase mutant A198G, SEQ ID NO: 30, expressed in P. renovo chloroplast (protein)
chain: MAKVLCVLYDDPVDGYPKTYARDDLPKIDHYPGGQTLPTPKAIDFTPGQLLGSVSGELGLRKYLESNGHTLVVTSDKDGPDSVFERELVDADVVISQPFWPAYLTPERIAKAKNLKLALTAGIGSDHVDLQSAIDRNVTVAEVTYCNSISVAEHVVMMILSLVRNYLPSHEWARKGGWNIADCVSHAYDLEAMHVGTVGAGRIGLAVLRRLAPFDVHLHYTQRHRLPESVEKELNLTWHATREDMYPVCDVVTLNAPLHPETEHMINDETLKLFKRGAYIVNTARGKLCDRDAVARALESGRLAGYAGDVWFPQPAPKDHPWRTMPYNGMTPHISGTTLTAQARYAAGTREILECFFEGRPIRDEYLIVQGGALAGTGAKVYSKGNATGGSEEAAKFKKAV
modifications: Pseudomonas sp. 101
Consider B4, for which the “growth when supplemented with formate” value with P. renovo [1] (5 mM formate, ambient CO2 (0.04%), versus no formate supplementation) is “enhanced growth”. Moreover, the “optical density relative to wild-type” value in the test on P. renovo [1] (5 mM formate, ambient CO2 (0.04%), versus unsupplemented wild-type) is on record as greater than 3.8 ×. In addition, the culture density entry in the test with P. renovo [1] (10 mM formate compared to 25 mM formate, 2% CO2) is given as “higher culture density”. Moreover, the “growth in media supplemented with formate” value with P. renovo [1] is “Growth in media supplemented with 25 mM formate was observed”. The “formate concentration in culture” value in the test on P. renovo [2] (5 mM formate added (initial 6.2 mM), ambient CO2 (0.04%), after 312 hours, HPLC) was 1.7 mM. Further, in the test on P. renovo [2] (5 mM formate, ambient CO2 (0.04%), 312 hours), the “utilization of the added formate” value is reported as 74+/−2%. The formate consumption in the test on P. renovo [2] (2% CO2, at 85 hours) was 77±2%; in the test on P. renovo [2] (2% CO2, at 132 hours) it was 88±1%. Moreover, the “formate consumed from the culture media” value in the test with P. renovo [2] is given as 48±1%.

The values are drawn from US20230357704A1 (Alliance for Sustainable Energy, LLC, priority 2022, published 2023).
